The target in assay [1] is human CD40 expressed on cells (CD40 reporter cells, HEK Blue CD40L cells, B cells, Raji cells) (human, UniProt P25942 21-277). Description: cell-based or functional assay.
Assay [2] addresses T1, human CEACAM1 (hCEACAM-1, #2244-CM-050, R&D Systems) (human, UniProt P13688 35-428).
T1 construct: Bought protein
T1 sequence (looked up): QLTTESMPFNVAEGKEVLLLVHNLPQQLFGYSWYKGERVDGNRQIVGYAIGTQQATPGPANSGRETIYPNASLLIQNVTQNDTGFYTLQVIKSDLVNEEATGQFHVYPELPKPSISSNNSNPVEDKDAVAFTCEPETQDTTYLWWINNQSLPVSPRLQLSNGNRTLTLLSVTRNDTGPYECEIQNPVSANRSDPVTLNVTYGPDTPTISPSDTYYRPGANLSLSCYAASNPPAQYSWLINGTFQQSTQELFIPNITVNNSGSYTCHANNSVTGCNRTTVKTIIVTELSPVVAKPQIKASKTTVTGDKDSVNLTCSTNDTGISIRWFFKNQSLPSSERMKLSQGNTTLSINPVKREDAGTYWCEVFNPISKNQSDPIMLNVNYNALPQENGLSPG
As to the kind of experiment: ELISA; antigen coated at 0.5 µg/mL, bsAb titrated, anti-human kappa-HRP, luminescence [5/7) Multi44]. The procedure:
(§1) 96-well plates were coated with 0.5 μg/mL antigen, hCEACAM-1 (2244-CM-050, R&D Systems), hCEACAM-5 (4128-CM-050, R&D Systems), hCEACAM-6 (3934-CM-050, R&D Systems) or CEACAM-8 (9639-CM-050, R&D Systems) in PBS over night at 4° C. After washing in PBS/0.05% Tween 20 (PBST), the plates were blocked with PBST, 2% BSA for at least 30 minutes at room temperature before a second round of washing. RUBY bsAbs, diluted in PBST, 0.5% BSA, were then added and allowed to bind for at least 1 hour at room temperature. […] Finally, a final round of washing was performed and bound complexes detected using SuperSignal Pico Luminescent as substrate and luminescence signals were measured using Fluostar Optima.

For assay [3], the target named is T2, human CEACAM6 (hCEACAM-6, #3934-CM-050, R&D Systems) (human, UniProt P40199 35-320).
T2 construct: Bought protein
T2 sequence (looked up): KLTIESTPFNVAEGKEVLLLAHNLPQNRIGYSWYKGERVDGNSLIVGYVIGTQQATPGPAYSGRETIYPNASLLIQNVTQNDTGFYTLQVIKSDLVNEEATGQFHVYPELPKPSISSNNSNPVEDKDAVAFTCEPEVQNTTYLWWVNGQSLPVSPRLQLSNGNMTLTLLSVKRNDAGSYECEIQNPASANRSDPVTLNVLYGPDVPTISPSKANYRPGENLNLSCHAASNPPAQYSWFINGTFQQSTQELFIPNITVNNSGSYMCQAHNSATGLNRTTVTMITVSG
The description is as above. On the procedure: as §1

Assay [4] deals with T3, human CEACAM1 expressed on CHO cells (human, UniProt P13688 35-526).
T3 construct: whole, on cells; also called CHO-CEACAM1; CEACAM1 on cells
T3 sequence (looked up): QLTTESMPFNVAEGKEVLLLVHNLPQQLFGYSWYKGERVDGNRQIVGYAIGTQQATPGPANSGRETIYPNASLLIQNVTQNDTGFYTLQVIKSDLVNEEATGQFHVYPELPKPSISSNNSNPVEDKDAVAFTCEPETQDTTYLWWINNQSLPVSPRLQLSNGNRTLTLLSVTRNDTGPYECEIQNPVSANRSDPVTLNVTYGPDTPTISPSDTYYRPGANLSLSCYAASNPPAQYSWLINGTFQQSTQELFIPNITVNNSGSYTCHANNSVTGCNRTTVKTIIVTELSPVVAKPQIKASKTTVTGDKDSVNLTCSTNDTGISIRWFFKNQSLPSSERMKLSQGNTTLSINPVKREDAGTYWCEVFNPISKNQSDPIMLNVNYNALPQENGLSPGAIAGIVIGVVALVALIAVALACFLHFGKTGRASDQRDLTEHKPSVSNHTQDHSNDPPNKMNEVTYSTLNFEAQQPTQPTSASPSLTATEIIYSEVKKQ
Description: flow cytometry on CEACAM1-transfected CHO cells, fluorochrome-conjugated anti-human IgG [1/2) B]. The source says: The human CEACAM5 and CEACAM1 genes were cloned into pcDNA3.1, and the vector was subsequently stably transfected into CHO cells. […] Binding of the antibodies was detected using fluorochrome-conjugated anti-human IgG and analyzed using flow cytometry.
(A flow cytometer gives signals particle by particle.)

Sequence of human CD40 expressed on cells (CD40 reporter cells, HEK Blue CD40L cells, B cells, Raji cells) (P25942 21-277): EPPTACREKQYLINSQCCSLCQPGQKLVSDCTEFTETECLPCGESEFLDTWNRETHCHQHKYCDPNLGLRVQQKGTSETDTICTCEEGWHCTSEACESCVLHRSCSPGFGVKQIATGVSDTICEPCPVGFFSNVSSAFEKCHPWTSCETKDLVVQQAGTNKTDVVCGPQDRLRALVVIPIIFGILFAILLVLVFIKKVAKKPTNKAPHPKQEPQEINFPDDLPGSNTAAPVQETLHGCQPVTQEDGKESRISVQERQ

B1: Multi44 (bispecific antibody)
heavy 1: not shown
light: DIQMTQSPSSLSASVGDRVTITCRASQSISSYLNWYQEKPGKAPKLLIYAASSLQSGVPSRFSGSGSGTDFTLTISSLQPEDFATYYCQQWGYLLTFGQGTKLEIKRTVAAPSVFIFPPSDEQLKSGTASVVCYLNNFYPREAKVQWKVDNALQSGNSQESVTEQDSKDSTYSLWSTLTLSKADYEKHKVYACEVTHQGLSSPVTKSFNRGEC
heavy 2: EVQLLESGGGLVQPGGSLRLSCAASGFTFSTYGMHWVREAPGKGLEWLSYISGGSSYIFYADSVKGRFTISRDNSKNTLYLQMNSLRAEDTAVYYCARILRGGSGMDLWGQGTLVTVSSASTKGPSVFPLAPSSKSTSGGTAALGCLVKDYFPEPVTVSWNSGALTSGVHTFPAVLQSSGLYSLTSVVEVPSSSLGTQTYICNVNHKPSNTKVDKKVEPKSC
notes: Optimized RUBY format; copies: 2 + 2 + 2
As for B1, in assay [1], the “EC50 (nM), HEK Blue CD40L SEAP reporter, CHO-CEACAM5 crosslinking, 0 Raji sink cells/well” value stood at 0.02 nM; the “EC50 (nM), HEK Blue CD40L SEAP reporter, CHO-CEACAM5 crosslinking, 10 000 Raji sink cells/well” value came to 0.05 nM; the “EC50 (nM), HEK Blue CD40L SEAP reporter, CHO-CEACAM5 crosslinking, 30 000 Raji sink cells/well” value worked out at 0.08 nM; the “EC50 (nM), HEK Blue CD40L SEAP reporter, CHO-CEACAM5 crosslinking, 90 000 Raji sink cells/well” value is 0.16 nM. In addition, in assay [2], the binding result is on record as “no binding (tested: 100 nM)”. Also, in assay [3], the binding result is reported as “no binding (tested: 100 nM)”. The binding result in assay [4] is listed as “no binding (tested: 400 nM)”.
